± gives the standard deviation of the averaged measurements.
Test: total protein half-life in vivo (active degradation + dilution); higher = more stable protein
[1] = E. coli NCM3722 delta-clpP delta-lon delta-hslV, growth: N-lim chemostat, doubling time 6 h
[2] = E. coli NCM3722 delta-clpP, growth: N-lim chemostat, doubling time 6 h
[3] = E. coli NCM3722 delta-lon, growth: N-lim chemostat, doubling time 6 h
[4] = E. coli NCM3722 delta-smpB, growth: N-lim chemostat, doubling time 6 h
[5] = wild type E. coli NCM3722, growth: C-lim chemostat, doubling time 3 h
[6] = wild type E. coli NCM3722, growth: C-lim chemostat, doubling time 6 h
[7] = wild type E. coli NCM3722, growth: C-lim chemostat, doubling time 12 h
[8] = wild type E. coli NCM3722, growth: N-lim chemostat, doubling time 6 h
[9] = wild type E. coli NCM3722, growth: N-lim chemostat, doubling time 12 h
[10] = wild type E. coli NCM3722, growth: P-lim chemostat, doubling time 6 h
[11] = wild type E. coli NCM3722, growth: P-lim chemostat, doubling time 12 h
[12] = E. coli NCM3722 delta-hslV, growth: N-lim chemostat, doubling time 6 h

Row | Sequence | total protein half-life in vivo [1] [h] | total protein half-life in vivo [2] [h] | total protein half-life in vivo [3] [h] | total protein half-life in vivo [4] [h] | total protein half-life in vivo [5] [h] | total protein half-life in vivo [6] [h] | total protein half-life in vivo [7] [h] | total protein half-life in vivo [8] [h] | total protein half-life in vivo [9] [h] | total protein half-life in vivo [10] [h] | total protein half-life in vivo [11] [h] | total protein half-life in vivo [12] [h]
1 | MITVALIDDHLIVRSGFAQLLGLEPDLQVVAEFGSGREALAGLPGRGVQVCICDISMPDISGLELLSQLPKGMATIMLSVHDSPALVEQALNAGARGFLSKRCSPDELIAAVHTVATGGCYLTPDIAIKLASGRQDPLTKRERQVAEKLAQGMAVKEIAAELGLSPKTVHVHRANLMEKLGVSNDVELARRMFDGW [P0AGA6] | 5.29 ± 0.12 | 4.19 ± 0.075 | 4.25 ± 1.2 | 3.84 ± 0.34 | 2.7 ± 0.14 | 4.26 ± 1.2 | 8.86 ± 0.39 | 4.01 ± 0.17 | 6.351 ± 0.022 | 4.35 ± 0.56 | 7.3 ± 0.44 | –
2 | MKLQQLRYIVEVVNHNLNVSSTAEGLYTSQPGISKQVRMLEDELGIQIFSRSGKHLTQVTPAGQEIIRIAREVLSKVDAIKSVAGEHTWPDKGSLYIATTHTQARYALPNVIKGFIERYPRVSLHMHQGSPTQIADAVSKGNADFAIATEALHLYEDLVMLPCYHWNRAIVVTPDHPLAGKKAITIEELAQYPLVTYTFGFTGRSELDTAFNRAGLTPRIVFTATDADVIKTYVRLGLGVGVIASMAVDPVADPDLVRVDAHDIFSHSTTKIGFRRSTFLRSYMYDFIQRFAPHLTRDVVDAAVALRSNEEIEVMFKDIKLPEK [P0A9F3] | 7.08 ± 0.39 | 4.65 ± 0.091 | 5.93 ± 0.08 | 4.96 ± 0.18 | 2.98 ± 0.23 | 5.63 ± 0.12 | 10 ± 1.2 | 5.41 ± 0.36 | 11 ± 0.51 | 4.01 ± 0.32 | 7.28 ± 0.33 | 5.88 ± 0.65
3 | MLNSFKLSLQYILPKLWLTRLAGWGASKRAGWLTKLVIDLFVKYYKVDMKEAQKPDTASYRTFNEFFVRPLRDEVRPIDTDPNVLVMPADGVISQLGKIEEDKILQAKGHNYSLEALLAGNYLMADLFRNGTFVTTYLSPRDYHRVHMPCNGILREMIYVPGDLFSVNHLTAQNVPNLFARNERVICLFDTEFGPMAQILVGATIVGSIETVWAGTITPPREGIIKRWTWPAGENDGSVALLKGQEMGRFKLGSTVINLFAPGKVNLVEQLESLSVTKIGQPLAVSTETFVTPDAEPAPLPAEEIEAEHDASPLVDDKKDQV [P0A8K1] | 6.31 ± 0.2 | 6.33 ± 0.086 | 5.79 ± 0.1 | 6 ± 0.58 | 2.76 ± 0.4 | 6.32 ± 0.66 | 12.8 ± 0.63 | 6.81 ± 0.24 | – | 6.16 ± 0.32 | 13.3 ± 0.12 | 5.99 ± 0.61
4 | MTRKQATIAVRSGLNDDEQYGCVVPPIHLSSTYNFTGFNEPRAHDYSRRGNPTRDVVQRALAELEGGAGAVLTNTGMSAIHLVTTVFLKPGDLLVAPHDCYGGSYRLFDSLAKRGCYRVLFVDQGDEQALRAALAEKPKLVLVESPSNPLLRVVDIAKICHLAREVGAVSVVDNTFLSPALQNPLALGADLVLHSCTKYLNGHSDVVAGVVIAKDPDVVTELAWWANNIGVTGGAFDSYLLLRGLRTLVPRMELAQRNAQAIVKYLQTQPLVKKLYHPSLPENQGHEIAARQQKGFGAMLSFELDGDEQTLRRFLGGLSLFTLAESLGGVESLISHAATMTHAGMAPEARAAAGISETLLRISTGIEDGEDLIADLENGFRAANKG | 4.37 ± 0.79 | 4.07 ± 0.43 | 4.53 ± 0.59 | 3.95 ± 0.28 | 3.1 ± 0.16 | 4.98 ± 0.61 | 10 ± 0.44 | 3.56 ± 0.17 | 5.84 ± 0.7 | 5.83 ± 0.5 | 11.7 ± 1.1 | 3.31 ± 0.36
5 | MSGWPRIYYKLLNLPLSILVKSKSIPADPAPELGLDTSRPIMYVLPYNSKADLLTLRAQCLAHDLPDPLEPLEIDGTLLPRYVFIHGGPRVFTYYTPKEESIKLFHDYLDLHRSNPNLDVQMVPVSVMFGRAPGREKGEVNPPLRMLNGVQKFFAVLWLGRDSFVRFSPSVSLRRMADEHGTDKTIAQKLARVARMHFARQRLAAVGPRLPARQDLFNKLLASRAIAKAVEDEARSKKISHEKAQQNAIALMEEIAANFSYEMIRLTDRILGFTWNRLYQGINVHNAERVRQLAHDGHELVYVPCHRSHMDYLLLSYVLYHQGLVPPHIAAGINLNFWPAGPIFRRLGAFFIRRTFKGNKLYSTVFREYLGELFSRGYSVEYFVEGGRSRTGRLLDPKTGTLSMTIQAMLRGGTRPITLIPIYIGYEHVMEVGTYAKELRGATKEKESLPQMLRGLSKLRNLGQGYVNFGEPMPLMTYLNQHVPDWRESIDPIEAVRPAWLTPTVNNIAADLMVRINNAGAANAMNLCCTALLASRQRSLTREQLTEQLNCYLDLMRNVPYSTDSTVPSASASELIDHALQMNKFEVEKDTIGDIIILPREQAVLMTYYRNNIAHMLVLPSLMAAIVTQHRHISRDVLMEHVNVLYPMLKAELFLRWDRDELPDVIDALANEMQRQGLITLQDDELHINPAHSRTLQLLAAGARETLQRYAITFWLLSANPSINRGTLEKESRTVAQRLSVLHGINAPEFFDKAVFSSLVLTLRDEGYISDSGDAEPAETMKVYQLLAELITSDVRLTIESATQGEG [P0A7A7] | – | 7.2 ± 0.25 | 6.38 ± 0.65 | 6.36 ± 0.2 | 3.37 ± 0.17 | 6.4 ± 0.11 | 12.2 ± 1.3 | 6.249 ± 0.032 | 13.3 ± 0.35 | 6.79 ± 0.28 | 13.4 ± 1.5 | 6.63 ± 0.61
